Reference: patent US20190022237

Legend:
[1] = biological target: T1, Permanent N-terminal CNP-34 PEG 5 kDa conjugate 14e (not fully specified)
T1 chain: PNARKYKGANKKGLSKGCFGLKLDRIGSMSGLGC

[2] = biological target: T2, Permanent Lys26 CNP-38 PEG4x10 kDa conjugate 12g (not fully specified)
T2 chain: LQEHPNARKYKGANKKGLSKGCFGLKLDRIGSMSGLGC

[3] = biological target: T3, Permanent N-terminal CNP-38 PEG 5 kDa conjugate 15e (not fully specified)
T3 chain: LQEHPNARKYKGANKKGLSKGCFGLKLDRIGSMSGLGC

Measured: half life norm. [h] (in vitro NEP digest)

B1: recombinant human Neutral Endopeptidase (NEP) (protein)
chain: YDDGICKSSDCIKSAARLIQNMDATTEPCTDFFKYACGGWLKRNVIPETSSRYGNFDILRDELEVVLKDVLQEPKTEDIVAVQKAKALYRSCINESAIDSRGGEPLLKLLPDIYGWPVATENWEQKYGASWTAEKAIAQLNSKYGKKVLINLFVGTDDKNSVNHVIHIDQPRLGLPSRDYYECTGIYKEACTAYVDFMISVARLIRQEERLPIDENQLALEMNKVMELEKEIANATAKPEDRNDPMLLYNKMTLAQIQNNFSLEINGKPFSWLNFTNEIMSTVNISITNEEDVVVYAPEYLTKLKPILTKYSARDLQNLMSWRFIMDLVSSLSRTYKESRNAFRKALYGTTSETATWRRCANYVNGNMENAVGRLYVEAAFAGESKHVVEDLIAQIREVFIQTLDDLTWMDAETKKRAEEKALAIKERIGYPDDIVSNDNKLNNEYLELNYKEDEYFENIIQNLKFSQSKQLKKLREKVDKDEWISGAAVVNAFYSSGRNQIVFPAGILQPPFFSAQQSNSLNYGGIGMVIGHEITHGFDDNGRNFNKDGDLVDWWTQQSASNFKEQSQCMVYQYGNFSWDLAGGQHLNGINTLGENIADNGGLGQAYRAYQNYIKKNGEEKLLPGLDLNHKQLFFLNFAQVWCGTYRPEYAVNSIKTDVHSPGNFRIIGTLQNSAEFSEAFHCRKNSYMNPEKKCRVW
Almost no proteolysis after 4 days.: all assays above
